# In the nanobody polyreactivity screen of Harvey et al. (2022):
# Experiment: yeast display, Sf9 membrane polyspecificity reagent, FACS + sequencing; frameworks hold sequencing errors
# Summary of the method: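 Nanobodies came from a synthetic yeast display library in Saccharomyces cerevisiae BJ5465, induced with galactose for 36–48 hours and stained for 1 hour at 4 °C with 10% biotinylated, detergent-solubilized Sf9 membrane reagent. Cells were enriched on streptavidin microbeads and then FACS-sorted, with low and high (top ~1%) gates set on anti-HA fluorescence for expression and streptavidin fluorescence for reagent binding. Each polyreactivity label reflects the gate a clone came from. Genes were amplified by colony PCR, sequenced by MiSeq 2 × 250 and filtered by CDR length.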
row,Sequence,polyreactivity (PSR sort gate)
1,QVQLVESGGGLVQAGGSLRLSCAASGSTLYVYTMGWYRQAPGKERELVATINTSGSRTYYADSVKGRFTISRDNAKNTVYLQMNSLKPEDTAVYYCAAEYVGKGTPDDYDYWGQGTQVTVSS,high polyreactivity
2,QVQLVESGGGLVQAGGSLRLSCAASGSTLYYNAMGWYRQAPGKERELVAAISWSGGSTYYADSVKGRFTISRDNAKNTVYLQMNSLKPEDTAVYYCAADVNYYQHRLYYWGQGTQVTVSS,low polyreactivity
3,QVQLVESGGGLVQAGGSLRLSCAASGSTLYYYAMGWYRQAPGKERELVAAITYSGGNTYYADSVKGRFTISRDNAKNTVYFQMNSLKPEDTAVYYCAADDWSSDYIRYEYWGQGTQVTVSS,low polyreactivity
4,QVQLVESGGGLVQAGGSLRLSCAASGSTLYYYAMGWYRQAPGKERELVATITNGGSTNYADSVKGRFTISRYNAKNTVYLQMNSLKPEDTAVYYCNARRGYWGSNYWGEGTQVTVSS,high polyreactivity
5,QVQLVESGGGLVQAGGSLRLSCAASGSTLYYYAMGWYRQAPGTERELGAAITWSGDSTYYADSVKGRFTISRDNAKNTVYLQMNSLKPEDTAVYYCAAEVESYDPYYTYDYWGQGTQVTVSS,high polyreactivity
6,QVQLVESGGGLVQAGGSLRLSCAASGSTNGRNAIGWSRQAPRKERELVAAISSGGSTSYADSVKVRFTISRDNAKYTDYLQMNSLKPVDTAVYYCAAQSVGSQYDYWGQGTQVTVSS,low polyreactivity
7,QVQLVESGGGLVQAGGSLRLSCAASGSTNRAYAMGWYRQAPGKERELVAAISYSGDSTYYADSVKGRFTISRDNAKNTVYLQMNSLKPEVTAVYYCNTAVWGPHRYDYWGQGTQVTVSS,low polyreactivity
8,QVQLVESGGGLVQAGGSLRLSCAASGSTPVYAMGWYRQAPGKERELVAAIRRRASSTYYADSVKGRFTISRDNAKNPVYLQMNSLKPEDTAVYYCAVGRVNGVLLGYWGQGTQVTVSS,high polyreactivity
9,QVQLVESGGGLVQAGGSLRLSCAASGSTQYGYAMGWYRQAPRKERELVAAINTGGSTNYADSVKGRFSISRDNAKNSVYLQMNSLKPEDTAVYYCAADYEWDAFSYDYWGQGTQVTVSS,low polyreactivity
10,QVQLVESGGGLVQAGGSLRLSCAASGSTSDINAMGWYRQAPGKERELVAVITFSGGSTNYADSVKGRFTISRDNAKNTVYLQMNSLKPEDTAVYYCNADTLTTTRRFNPYDYWGQGTQVTVSS,low polyreactivity
11,QVQLVESGGGLVQAGGSLRLSCAASGSTSGFYAMGWYRQAPGKERELVAAIDVSGGSTYYADSVKGRFTISRDNAKNTVYLQIHSLKPEDTAVYYCAAYRRNVWSARYGYWGQGTQVTVSS,high polyreactivity
12,QVQLVESGGGLVQAGGSLRLSCAASGSTSGIYAMGWSRQAPGKERELVAAIDTSGGSTYADSVKGRFTISRDNAKNTVYLQMNSLKPEATAVYYCARTWGLRYRWSYGRSRYNFWGQGTQVTVSS,low polyreactivity
13,QVQLVESGGGLVQAGGSLRLSCAASGSTSGKNAMGWYRQAPGKERELVAAIRNSGGTTYYADSVKGRFTISRDNAKNTVYLQMNSLKPEDTAVYYCATRYYLKFLDGYNYWGQGTQVTVSS,high polyreactivity
14,QVQLVESGGGLVQAGGSLRLSCAASGSTSGRNVMGWYRQSPGKERELVAAISSRGGSTYYADSVKGRFTISRDNEKNTVYLQMNSLKPEDTAVYYCASRYGAYSGYDYWGQGTQVTVSS,high polyreactivity
15,QVQLVESGGGLVQAGGSLRLSCAASGSTSIYYTMGWYRQAPGKERELVAYADSVKGRFTISRDNAKNTVYLQMNSMKPEDTEVYFCAAPRTYYSELTSPYDYWGQGTQVTVSS,low polyreactivity
16,QVQLVESGGGLVQAGGSLRLSCAASGSTSLGYAMGWYRQAPGKERELVASISWTGGGTYYADSVKGRFTLSRDNAKNTVYLQMNSLKPDDTAVYYCAADLTGYHPYIYGYWGQGTQVTVSS,low polyreactivity
17,QVQLVESGGGLVQAGGSLRLSCAASGSTSNVYAMGWYRQAPGKERELVAAIRWSGGNTYYADSVKGRFTISRDNAKNTFYLQMNSLKPEDTAVYYCAAFYRYVSTIFDYWGQGTQVTVSS,high polyreactivity
18,QVQLVESGGGLVQAGGSLRLSCAASGSTSPFNAMGWYRQAPGKERELVASITSSGSTNYADSVKGLFTISRDNAKYTVYFQMNSLKPEDTAVYYCATEGVVSETIYDYWGQGSQVTVSS,low polyreactivity
19,QVQLVESGGGLVQAGGSLRLSCAASGSTSPFYVMGWYRQAPGKERELVAAISYSGGSTYYADSVKGRFTISRDNAKNTVYLQMISLKPEDTAVYYCAARYRLTYGLYGYWGQGTQVTVSS,high polyreactivity
20,QVQLVESGGGLVQAGGSLRLSCAASGSTSPGYAMGWYRLEPGKERELVAAITFRGTRTYYADSVKGRFTISRDNAKKTVYLLMNSLKPEDTAVYYCNVVGYGPNRGRVDYWGQGTQVTVSS,high polyreactivity
21,QVQLVESGGGLVQAGGSLRLSCAASGSTSPGYAMGWYRQAPGKERELVAAITFRGTRTYYSDSVKGRFTISRDNAKNTVYLQMNSQKPDDTAVYYCNVVGYGPNRGRVDYCGQGTQVTVSS,high polyreactivity

row,Sequence,polyreactivity (PSR sort gate)
1,QVQLVESGGGLVQAGGSLRLSCAASGSTSPYYDRGWSRQAPGKERELVAAITSGGSTNYADSVKGRFTISRDYAKNSVYLQMNSLKPEDTAVYYCATDWSDDLWTWYYYWGQGTQVTVSS,high polyreactivity
2,QVQLVESGGGLVQAGGSLRLSCAASGSTSRQYAMGWYRQAPGKERELVAAITWSGASTNYADSVKGRFTISRDNAKNTVYLQMNSLKREDTAVYYCAAYRWVYPDVIYDYWGQGTQVTVSS,high polyreactivity
3,QVQLVESGGGLVQAGGSLRLSCAASGSTSSVYAMGWYRQAPGKERELVAAISYRGARTYYADSVKGRFTISRDNAKNTVYFQMNSLKPEDTAVYYCAAENYPRRPRYDYWGQATQVTVSS,high polyreactivity
4,QVQLVESGGGLVQAGGSLRLSCAASGSTSTWYAMGWYRQAPGKERELVATITGSGDTTYYADSVKGRFTISRDNAKNTVYLQMNSLKPEDTAVYYCAADYDPDDDTYDYWGQGTQVTVSS,low polyreactivity
5,QVQLVESGGGLVQAGGSLRLSCAASGSTSTYYAMGWYRQAPWKERELVAANTLGAGRTYADSEKGRFTISRDNAKNTVSLQMNSLKPEDTAVYYCAADGYISVNYLRYDYWGQGTQVTVSS,low polyreactivity
6,QVQLVESGGGLVQAGGSLRLSCAASGSTSVDYTMGLYRQAPGKERELVAAIDYNGDSTYYADSVKGRFTISRDNAKNTVYLQMNSLKPEDTAVYYCAADYLSFVVVKLYGYWGQGTQVTVSS,low polyreactivity
7,QVQLVESGGGLVQAGGSLRLSCAASGSTSVKYAMGWYRQAPGKERELVAAIRKRGDSTYYADSVKGRFTISRDNAKNTVYLQMNSLKPEDTAVYYCAAQYLRGRGYWGQGTQVTVSA,low polyreactivity
8,QVQLVESGGGLVQAGGSLRLSCAASGSTSVVNARGWSRPAPGKERELVAAISTGGASTYYADSVKGRYTISRDNAKNTVYLQMNSLKPEDTAVYYCAADLGYEYDYWGQCTQVTVSS,high polyreactivity
9,QVQLVESGGGLVQAGGSLRLSCAASGSTSVYYAMGWYRQAPGKERELVAAITSGGRTYYADSVKGRFTISRDNAKNTVYLQMNSLKPEDTAVYYCNKGLYYFLPTKFRLDYWGQGTQVTVSS,high polyreactivity
10,QVQLVESGGGLVQAGGSLRLSCAASGSTSYFNVKGWYRQAPGKERELVAAISWSGGSTYADSVKGRFTISRDNAKNTVYLQMNSLKREDTAVYYCNKDYGYVQLRFYGPGYYWGQGTQVTVSS,low polyreactivity
11,QVQLVESGGGLVQAGGSLRLSCAASGSTSYRYAMGWYRQAPGKERELVATITSGGRTYYADSVKGRFTISRDNAKNTVYLQMNSLKPEDTAVYYCNKLNYWYKHYYWGQGTQVTVSS,high polyreactivity
12,QVQLVESGGGLVQAGGSLRLSCAASGSTVDFNAMGWYRQAPGKERELVAGISRDGGSTYYADSVKGRFTISRDYAKNTVYLEMNSLKPEDTAVYYCAVEAWSVPPYDYWGQGTQVTVSS,low polyreactivity
13,QVQLVESGGGLVQAGGSLRLSCAASGSTVGSNAMGWYRQAPGKERELVAAISSDGSTNYADSVKGRFTISRDNAKNTVSLQMNSLKPEETAVYYCKAVVQDADWGYDYWGQGTQVTLSS,low polyreactivity
14,QVQLVESGGGLVQAGGSLRLSCAASGSTVNFYAMGWYRQAPGKERELVAAISWRGNTYYADSVKGRFTISRDNAKNTVYLQITSLKPEDTAVSYCDAYEWLAYTSAWYGYWGQGTQVTVSS,high polyreactivity
15,QVQLVESGGGLVQAGGSLRLSCAASGSTWIYAMGWYRQAPGKERELVAAISGSGDRTYYADSVKGRFTISRDNAKNTVYLLMNSLQPEDTAVYFCATVYYKSGKYDYWGQGTQVTVSS,high polyreactivity
16,QVQLVESGGGLVQAGGSLRLSCAASGSTYGGYAMGWYRQAPGKETELVAAISRSGSSTYYADSVKGRFTISRDNAKNTVYLQMNSLKPEDTAVYYCAKRRPALRWIYYYWGQGTQVTVSS,high polyreactivity
17,QVQLVESGGGLVQAGGSLRLSCAASGSTYLYYAMGWYRQAPGKEREMVAAIWSDGSTRYADSVKGRFTISRDNAKNTVYLQMNSLKPEDTAVYYCAVYNYWGQGTQVTVSS,low polyreactivity
18,QVQLVESGGGLVQAGGSLRLSCAASGSTYPYAMGWYRPAPGKERELVAAITWSGGNTYYADSVKGRFTISRDNAKNTVYLQMNSLKPEDTAVYYCAKSRYATQTDYNYWGQGTQVTVSS,high polyreactivity
19,QVQLVESGGGLVQAGGSLRLSCAASGSTYQNAMGWYRQAPGKEREFVAAISWSGGSTYYADSVKGRFTISRDNAKNTVYLQMNSLKPEDTAVYYCAAYSYFSPWYDYWGQGTQVTVSS,high polyreactivity
20,QVQLVESGGGLVQAGGSLRLSCAASGSTYRLYTMGWYRQAPGKERELVAAITSGGSTNYADSVKGRFTISRDNAKNTVYLQMYSLKPEDTAVYYCAKAKRFPSFDYWGQGTQVTVSS,low polyreactivity
